Source: article PMC8041169

Biological target: recombinant truncated LvAPN1-His (N-terminal region of Litopenaeus vannamei aminopeptidase N1 with the Cry toxin binding region and the active site of the peptidase-M1 domain) (Litopenaeus vannamei)
Assay: ELISA; 20 ug purified truncated rLvAPN1 coated overnight in 0.1 M carbonate/bicarbonate buffer pH 9.6 at 4 C; blocked with 0.5% BSA in TBS pH 8.0; rPirA^vp, rPirB^vp or rGST at 0-10 uM in TBS incubated at 4 C overnight; detected with rabbit anti-PirA^vp or anti-PirB^vp polyclonal antibody and HRP-conjugated secondary antibody, A450; one-site binding model; apparent Kd

## recombinant PirA^vp-His toxin subunit of Vibrio parahaemolyticus (VP_AHPND) (natural protein)
  Kd: 3200 nM

## recombinant PirB^vp-GST toxin subunit of Vibrio parahaemolyticus (VP_AHPND) (natural protein)
  Kd: 500 nM
